What was measured:
Type in all cases: in vivo
[1] = tested on: Arabidopsis thaliana T1 plants; test: Isoxaflutole tolerance of transgenic Arabidopsis thaliana T1 plants (spray, bleached leaf area grade, damage score); conditions: Arabidopsis thaliana T1 plants; for Grade 0 (classification and statistics of the grade of pesticide damage; number of plants) / Grade 1 (classification and statistics of the grade of pesticide damage; number of plants) / Grade 2 (classification and statistics of the grade of pesticide damage; number of plants) / Grade 3 (classification and statistics of the grade of pesticide damage; number of plants): 16 plants;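 for Scores: Weighted damage index from 0 to 100 where higher means more damage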
Summary of the method: (§1)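 Damage graded 0–3 from the proportion of bleached leaf area 7 days after spraying. Plants were glufosinate-selected T1 lines, 18 days after sowing, plus vector and wild-type controls. Rates: mesotrione 52.5–420, isoxaflutole 35–280, topramezone 25–200 g ai/ha, with water (0×).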

[2] = tested on: Arabidopsis thaliana T1 plants; test: Mesotrione tolerance of transgenic Arabidopsis thaliana T1 plants (spray, bleached leaf area grade, damage score); design: Scores: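 damage score 0-100 computed as Σ(N×S)/(T×M)×100 over grades 0-3 with higher meaning more damage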; conditions: Table 9; for Classification and statistics of the grade of pesticide damage Grade 0: number of plants at grade 0; for Classification and statistics of the grade of pesticide damage Grade 1: number of plants at grade 1; for Classification and statistics of the grade of pesticide damage Grade 2: number of plants at grade 2; for Classification and statistics of the grade of pesticide damage Grade 3: number of plants at grade 3; for Scores: pesticide damage score
Summary of the method: as §1

[3] = tested on: Arabidopsis thaliana T1 plants; test: Topramezone tolerance of transgenic Arabidopsis thaliana T1 plants (spray, bleached leaf area grade, damage score); conditions: for Resistance evaluation / Scores / Grade 0 (classification and statistics of the grade of pesticide damage; number of plants) / Grade 1 (classification and statistics of the grade of pesticide damage; number of plants) / Grade 2 (classification and statistics of the grade of pesticide damage; number of plants) / Grade 3 (classification and statistics of the grade of pesticide damage; number of plants): Arabidopsis thaliana T1 plants; for Grade 0 (classification and statistics of the grade of pesticide damage; number of plants) / Grade 1 (classification and statistics of the grade of pesticide damage; number of plants) / Grade 2 (classification and statistics of the grade of pesticide damage; number of plants) / Grade 3 (classification and statistics of the grade of pesticide damage; number of plants): 16 plants; for tolerance to topramezone (resistance class): topramezone at four-fold or eight-fold field concentration
Summary of the method: as §1

[4] = isoxaflutole 140 g ai/ha (2x field concentration)
[5] = isoxaflutole 280 g ai/ha (4x field concentration)
[6] = topramezone 100 g ai/ha (4x field concentration)
[7] = topramezone 200 g ai/ha (8x field concentration)

B1: AsHPPDm-F372G-02: nucleotide sequence encoding Avena sativa HPPD with F372G; vector DBN11774 (nucleic acid)
DNA: ATGCCACCTACTCCAGCTACAGCTACTGGTGCTGCTGCTGCTGCCGTTACTCCTGAGCACGCTGCCAGGTCATTCCCCAGGGTGGTTCGCGTGAACCCCAGATCTGATAGGTTCCCAGTTCTGAGCTTCCACCATGTTGAGCTGTGGTGCGCTGATGCTGCTTCTGCTGCTGGCAGGTTCTCTTTCGCTCTTGGTGCTCCACTCGCTGCTAGATCTGATCTGTCTACAGGAAATAGCGCTCATGCCTCACTCCTGCTTCGCTCAGGTGCTTTGGCCTTCCTCTTCACCGCTCCATATGCTCCCCCACCTCAGGAGGCTGCTACTGCTGCTGCTACAGCCTCCATTCCAAGCTTCTCAGCTGATGCCGCTAGAACCTTCGCTGCTGCTCATGGACTTGCCGTGAGGTCTGTTGGTGTTCGCGTGGCTGATGCTGCTGAGGCTTTCAGAGTTTCCGTTGCCGGCGGAGCTAGGCCAGCTTTCGCTCCTGCTGATTTGGGACATGGTTTCGGCCTGGCTGAGGTTGAGCTTTACGGTGACGTGGTTCTCCGCTTCGTGTCTTACCCAGATGAGACTGACCTGCCTTTCCTTCCCGGCTTCGAGAGAGTTTCCTCTCCTGGTGCCGTGGATTACGGCCTGACAAGGTTCGACCACGTGGTTGGAAACGTTCCCGAGATGGCTCCAGTGATCGATTACATGAAGGGCTTCCTTGGATTCCATGAGTTCGCCGAGTTCACTGCTGAGGACGTGGGAACCACTGAGTCCGGTTTGAACTCTGTGGTTCTCGCCAACAATTCTGAGGCTGTTTTGCTCCCTCTGAATGAGCCTGTGCATGGAACCAAGAGGAGAAGCCAGATTCAAACTTACCTGGAGTACCACGGTGGCCCTGGAGTTCAGCATATCGCCCTTGCTTCTAATGATGTGTTGCGCACACTCAGAGAGATGCGCGCCAGAACCCCCATGGGAGGTTTCGAGTTCATGGCCCCACCACAGGCTAAGTACTACGAGGGCGTTAGAAGGATTGCTGGAGACGTGTTGAGCGAGGAGCAGATCAAGGAGTGCCAAGAGCTGGGTGTTCTTGTGGATAGGGATGACCAGGGCGTTCTGCTTCAAATTGGTACTAAGCCAGTGGGCGACCGCCCTACATTCTTCCTTGAGATGATTCAAAGAATCGGCTGCATGGAGAAGGATGAGGTTGGACAGGAGTACCAAAAGGGCGGATGCGGTGGCTTCGGAAAGGGTAACTTCAGCGAGTTGTTCAAGTCAATCGAGGACTACGAGAAGAGCCTCGAGGTGAAGCAGTCAGTGGTTGCCCAAAAGTCCTGA
modifications: AsHPPDm-F372G-02 Nucleotide Sequence
notes: vector DBN11774
- Resistance evaluation [1, 4]: Moderately
- Scores [1, 4]: 29
- Grade 0 (classification and statistics of the grade of pesticide damage; number of plants) [1, 4]: 6
- Grade 1 (classification and statistics of the grade of pesticide damage; number of plants) [1, 4]: 7
- Grade 2 (classification and statistics of the grade of pesticide damage; number of plants) [1, 4]: 2
- Grade 3 (classification and statistics of the grade of pesticide damage; number of plants) [1, 4]: 1
- Resistance evaluation [1, 5]: Poorly resistant
- Scores [1, 5]: 67
- Grade 0 (classification and statistics of the grade of pesticide damage; number of plants) [1, 5]: 0
- Grade 1 (classification and statistics of the grade of pesticide damage; number of plants) [1, 5]: 0
- Grade 2 (classification and statistics of the grade of pesticide damage; number of plants) [1, 5]: 16
- Grade 3 (classification and statistics of the grade of pesticide damage; number of plants) [1, 5]: 0
- Resistance evaluation ([2]; mesotrione 210 g ai/ha (2×)): Moderately
- Classification and statistics of the grade of pesticide damage Grade 0 ([2]; mesotrione 210 g ai/ha (2×)): 5
- Classification and statistics of the grade of pesticide damage Grade 1 ([2]; mesotrione 210 g ai/ha (2×)): 8
- Classification and statistics of the grade of pesticide damage Grade 2 ([2]; mesotrione 210 g ai/ha (2×)): 2
- Classification and statistics of the grade of pesticide damage Grade 3 ([2]; mesotrione 210 g ai/ha (2×)): 1
- Scores ([2]; mesotrione 210 g ai/ha (2×)): 31
- Resistance evaluation ([2]; mesotrione 420 g ai/ha (4×)): Poorly resistant
- Classification and statistics of the grade of pesticide damage Grade 0 ([2]; mesotrione 420 g ai/ha (4×)): 0
- Classification and statistics of the grade of pesticide damage Grade 1 ([2]; mesotrione 420 g ai/ha (4×)): 8
- Classification and statistics of the grade of pesticide damage Grade 2 ([2]; mesotrione 420 g ai/ha (4×)): 8
- Classification and statistics of the grade of pesticide damage Grade 3 ([2]; mesotrione 420 g ai/ha (4×)): 0
- Scores ([2]; mesotrione 420 g ai/ha (4×)): 50
- Resistance evaluation [3, 6]: Highly resistant
- Scores [3, 6]: 0
- Grade 0 (classification and statistics of the grade of pesticide damage; number of plants) [3, 6]: 16
- Grade 1 (classification and statistics of the grade of pesticide damage; number of plants) [3, 6]: 0
- Grade 2 (classification and statistics of the grade of pesticide damage; number of plants) [3, 6]: 0
- Grade 3 (classification and statistics of the grade of pesticide damage; number of plants) [3, 6]: 0
- Resistance evaluation [3, 7]: Highly resistant
- Scores [3, 7]: 0
- Grade 0 (classification and statistics of the grade of pesticide damage; number of plants) [3, 7]: 16
- Grade 1 (classification and statistics of the grade of pesticide damage; number of plants) [3, 7]: 0
- Grade 2 (classification and statistics of the grade of pesticide damage; number of plants) [3, 7]: 0
- Grade 3 (classification and statistics of the grade of pesticide damage; number of plants) [3, 7]: 0
- tolerance to topramezone (resistance class) [3]: highly-resistant

B2: AsHPPDm-F372G-F383W-02: nucleotide sequence encoding Avena sativa HPPD with F372G+F383W; vector DBN11775 (nucleic acid)
DNA: ATGCCACCTACTCCAGCTACAGCTACTGGTGCTGCTGCTGCTGCCGTTACTCCTGAGCACGCTGCCAGGTCATTCCCCAGGGTGGTTCGCGTGAACCCCAGATCTGATAGGTTCCCAGTTCTGAGCTTCCACCATGTTGAGCTGTGGTGCGCTGATGCTGCTTCTGCTGCTGGCAGGTTCTCTTTCGCTCTTGGTGCTCCACTCGCTGCTAGATCTGATCTGTCTACAGGAAATAGCGCTCATGCCTCACTCCTGCTTCGCTCAGGTGCTTTGGCCTTCCTCTTCACCGCTCCATATGCTCCCCCACCTCAGGAGGCTGCTACTGCTGCTGCTACAGCCTCCATTCCAAGCTTCTCAGCTGATGCCGCTAGAACCTTCGCTGCTGCTCATGGACTTGCCGTGAGGTCTGTTGGTGTTCGCGTGGCTGATGCTGCTGAGGCTTTCAGAGTTTCCGTTGCCGGCGGAGCTAGGCCAGCTTTCGCTCCTGCTGATTTGGGACATGGTTTCGGCCTGGCTGAGGTTGAGCTTTACGGTGACGTGGTTCTCCGCTTCGTGTCTTACCCAGATGAGACTGACCTGCCTTTCCTTCCCGGCTTCGAGAGAGTTTCCTCTCCTGGTGCCGTGGATTACGGCCTGACAAGGTTCGACCACGTGGTTGGAAACGTTCCCGAGATGGCTCCAGTGATCGATTACATGAAGGGCTTCCTTGGATTCCATGAGTTCGCCGAGTTCACTGCTGAGGACGTGGGAACCACTGAGTCCGGTTTGAACTCTGTGGTTCTCGCCAACAATTCTGAGGCTGTTTTGCTCCCTCTGAATGAGCCTGTGCATGGAACCAAGAGGAGAAGCCAGATTCAAACTTACCTGGAGTACCACGGTGGCCCTGGAGTTCAGCATATCGCCCTTGCTTCTAATGATGTGTTGCGCACACTCAGAGAGATGCGCGCCAGAACCCCCATGGGAGGTTTCGAGTTCATGGCCCCACCACAGGCTAAGTACTACGAGGGCGTTAGAAGGATTGCTGGAGACGTGTTGAGCGAGGAGCAGATCAAGGAGTGCCAAGAGCTGGGTGTTCTTGTGGATAGGGATGACCAGGGCGTTCTGCTTCAAATTGGTACTAAGCCAGTGGGCGACCGCCCTACATTCTGGCTTGAGATGATTCAAAGAATCGGCTGCATGGAGAAGGATGAGGTTGGACAGGAGTACCAAAAGGGCGGATGCGGTGGCTTCGGAAAGGGTAACTTCAGCGAGTTGTTCAAGTCAATCGAGGACTACGAGAAGAGCCTCGAGGTGAAGCAGTCAGTGGTTGCCCAAAAGTCCTGA
modifications: AsHPPDm-F372G-F383W-02 Nucleotide Sequence
notes: vector DBN11775
- Resistance evaluation [1, 4]: Highly resistant
- Scores [1, 4]: 0
- Grade 0 (classification and statistics of the grade of pesticide damage; number of plants) [1, 4]: 16
- Grade 1 (classification and statistics of the grade of pesticide damage; number of plants) [1, 4]: 0
- Grade 2 (classification and statistics of the grade of pesticide damage; number of plants) [1, 4]: 0
- Grade 3 (classification and statistics of the grade of pesticide damage; number of plants) [1, 4]: 0
- Resistance evaluation [1, 5]: Highly resistant
- Scores [1, 5]: 8
- Grade 0 (classification and statistics of the grade of pesticide damage; number of plants) [1, 5]: 12
- Grade 1 (classification and statistics of the grade of pesticide damage; number of plants) [1, 5]: 4
- Grade 2 (classification and statistics of the grade of pesticide damage; number of plants) [1, 5]: 0
- Grade 3 (classification and statistics of the grade of pesticide damage; number of plants) [1, 5]: 0
- Resistance evaluation ([2]; mesotrione 210 g ai/ha (2×)): Highly resistant
- Classification and statistics of the grade of pesticide damage Grade 0 ([2]; mesotrione 210 g ai/ha (2×)): 16
- Classification and statistics of the grade of pesticide damage Grade 1 ([2]; mesotrione 210 g ai/ha (2×)): 0
- Classification and statistics of the grade of pesticide damage Grade 2 ([2]; mesotrione 210 g ai/ha (2×)): 0
- Classification and statistics of the grade of pesticide damage Grade 3 ([2]; mesotrione 210 g ai/ha (2×)): 0
- Scores ([2]; mesotrione 210 g ai/ha (2×)): 0
- Resistance evaluation ([2]; mesotrione 420 g ai/ha (4×)): Highly resistant
- Classification and statistics of the grade of pesticide damage Grade 0 ([2]; mesotrione 420 g ai/ha (4×)): 13
- Classification and statistics of the grade of pesticide damage Grade 1 ([2]; mesotrione 420 g ai/ha (4×)): 3
- Classification and statistics of the grade of pesticide damage Grade 2 ([2]; mesotrione 420 g ai/ha (4×)): 0
- Classification and statistics of the grade of pesticide damage Grade 3 ([2]; mesotrione 420 g ai/ha (4×)): 0
- Scores ([2]; mesotrione 420 g ai/ha (4×)): 6
- Resistance evaluation [3, 6]: Highly resistant
- Scores [3, 6]: 0
- Grade 0 (classification and statistics of the grade of pesticide damage; number of plants) [3, 6]: 16
- Grade 1 (classification and statistics of the grade of pesticide damage; number of plants) [3, 6]: 0
- Grade 2 (classification and statistics of the grade of pesticide damage; number of plants) [3, 6]: 0
- Grade 3 (classification and statistics of the grade of pesticide damage; number of plants) [3, 6]: 0
- Resistance evaluation [3, 7]: Highly resistant
- Scores [3, 7]: 0
- Grade 0 (classification and statistics of the grade of pesticide damage; number of plants) [3, 7]: 16
- Grade 1 (classification and statistics of the grade of pesticide damage; number of plants) [3, 7]: 0
- Grade 2 (classification and statistics of the grade of pesticide damage; number of plants) [3, 7]: 0
- Grade 3 (classification and statistics of the grade of pesticide damage; number of plants) [3, 7]: 0
- tolerance to topramezone (resistance class) [3]: highly-resistant

— patent publication US20250043302A1, “MUTATED HYDROXYPHENYLPYRUVATE DIOXYGENASE POLYPEPTIDE, AND CODING GENE AND USE THEREOF” (BEIJING DABEINONG BIOTECHNOLOGY CO., LTD., priority 2021, published 2025)
